Test results reported in patent US10765616B2, “Oral formulation of polyglucosamine derivatives in combination with a non-fermentable sugar” (SYNEDGEN, INC., priority 2013, dated 2020).

Tests used:
S. mutans biofilms [1] = test: MBEC peg biofilm biomass reduction assay of active ingredients (twice daily, OD595); assay type: cell-based, Streptococcus mutans; details: 2 minutes, 8-hour interval, 32 μg/mL PAAG, 1.5% hydrogen peroxide, alcohol, lactoferrin, chlorhexidine
Method: The S. mutans biofilms were grown according to MBEC™ for High-throughput Screening methods (Innovotech) on a hydroxyapatite-coated peg lid placed in trough containing BHI media supplemented with 1% sucrose rocking for 72 hours. The pegs were treated twice daily with PAAG (30% functionalized, 86 kD) active ingredients (FIG. 9) at 8-hour intervals for 2-minutes. The biofilms were rinsed in PBS, and the pegs were removed and placed into 200 μl 95% ethanol each for 2 minutes to fix the biofilms. The MBEC-HTP biofilms were stained with 150 μl of 3% Crystal Violet dye each for 2 minutes, and rinsed five times with PBS. It was noted that chlorhexidine appears to “fix” the biofilm to the pegs. The bacteria may or may not be viable because OD measured biofilm biomass, not viable CFUs. The stained and rinsed MBEC-HTP biofilms were then placed in 150 μL ethanol for 1-minute to remove the dye/biofilm. Then 100 μL of the ethanol and dyed biofilm suspension was placed into a 96-well plate and the OD595 was measured to quantify the remaining stained biofilm biomass.

A431 epithelial cells = tested on: A431 epithelial cells
Method: Human epithelial cell monolayers of A431 (ATCC CRL-1555) were seeded in tissue culture treated 96-well plates at a density of 2×10^4 cells/well in DMEM media supplemented with 10% FBS, 1% Penicillin-Streptomycin, and 1% Amphotericin B. Seeded cells were incubated at 37° C. with 5% CO2 for 48 hours. The media was removed and replaced with serum-free, antimicrobial-free media and rinsed one time for 30 seconds with PAAG Oral Formulation H, other oral products (Biotene, Corsodyl, Peroxyl, or Listerine), 32 μg/mL PAAG (30% functionalized, 86 kDa) and other active ingredients (0.029% lactoferrin, 0.2% chlorhexidine gluconate, 1.5% hydrogen peroxide, or 20% alcohol). Epithelial cell viability was determined by ATPLite Luminescence ATP Detection Assay System (PerkinElmer). Testing was done in duplicate.
Epithelial cell viability was compared between PAAG and other oral active ingredients and oral rinse products. Human epithelial cell monolayers were rinsed once for 30 seconds with each treatment. Following treatment, the epithelial cells were evaluated with ATP LITE Luminecence assay that measured viability via ATP. The data was normalized to untreated cells to compare percent survival (FIG. 4). […] Epithelial cell viability was determined by ATPLite Luminescence ATP Detection Assay System (Perkin Elmer) and compared to media rinsed cells.

S. mutans biofilms [2] = test: Comparative biofilm reduction study of oral rinses and active ingredients (MBEC pegs); assay type: cell-based, Streptococcus mutans; details: 72 h S. mutans biofilms, treated 2 minutes twice (6-hour interval), vs water control, active ingredients at the concentration printed in the row or sentence
Method: Biofilms of S. mutans were grown on hydroxyapatite-coated pegs according to MBEC Assay™ methods for 72 hours, and then treated with the oral rinses or a water control. The corresponding active ingredients were also evaluated. The biofilms were exposed for 2-minutes, twice in a 6-hour interval to evaluate biofilm removal. Following treatment, biofilms were rinsed, fixed, and stained with 0.4% Crystal Violet, and remaining biofilm was quantitated via CFU or OD595 (Beenken and Smeltzer, 2003). Biofilms were analyzed in triplicate in at least 3 independent assays. Ratios were averaged from all assays and the percent biofilm reduced and standard error compared to water control is shown.

B1: lactoferrin (protein, UniProt P02788 20-710, looked up)
Lactotransferrin: GRRRSVQWCAVSQPEATKCFQWQRNMRKVRGPPVSCIKRDSPIQCIQAIAENRADAVTLDGGFIYEAGLAPYKLRPVAAEVYGTERQPRTHYYAVAVVKKGGSFQLNELQGLKSCHTGLRRTAGWNVPIGTLRPFLNWTGPPEPIEAAVARFFSASCVPGADKGQFPNLCRLCAGTGENKCAFSSQEPYFSYSGAFKCLRDGAGDVAFIRESTVFEDLSDEAERDEYELLCPDNTRKPVDKFKDCHLARVPSHAVVARSVNGKEDAIWNLLRQAQEKFGKDKSPKFQLFGSPSGQKDLLFKDSAIGFSRVPPRIDSGLYLGSGYFTAIQNLRKSEEEVAARRARVVWCAVGEQELRKCNQWSGLSEGSVTCSSASTTEDCIALVLKGEADAMSLDGGYVYTAGKCGLVPVLAENYKSQQSSDPDPNCVDRPVEGYLAVAVVRRSDTSLTWNSVKGKKSCHTAVDRTAGWNIPMGLLFNQTGSCKFDEYFSQSCAPGSDPRSNLCALCIGDEQGENKCVPNSNERYYGYTGAFRCLAENAGDVAFVKDVTVLQNTDGNNNEAWAKDLKLADFALLCLDGKRKPVTEARSCHLAMAPNHAVVSRMDKVERLKQVLLHQQAKFGRNGSDCPDKFCLFQSETKNLLFNDNTECLARLHGKTTYEKYLGPQYVAGITNLKKCSTSPLLEACEFLRK
- reduction in S. mutans biofilm biomass compared to water control (S. mutans biofilms [1]): did not significantly reduce
- epithelial cell viability (A431 epithelial cells): maintain epithelial cell viability
- Percent (%) Biomass Reduced (S. mutans biofilms [2]): 25.6 ± 4.3%
- Percent (%) Biomass Reduced (S. mutans biofilms [2]; listed as lactoferrin): 25.6±4.3%
